This note sets out measurements from FireProtDB (doi:10.1016/s0014-5793(99)01395-2).

For the data set the following is noted: Escherichia phage lambda, pH 7, Thermal, Fluorescence, phosphate buffer 100 mM, reversible: yes, whole UniProt chain shown.

B1: Endolysin wild type, P03706 (protein)
chain: MVEINNQRKAFLDMLAWSEGTDNGRQKTRNHGYDVIVGGELFTDYSDHPRKLVTLNPKLKSTGAGRYQLLSRWWDAYRKQLGLKDFSPKSQDAVALQQIKERGALPMIDRGDIRQAIDRCSNIWASLPGAGYGQFEHKADSLIAKFKEAGGTVREIDV
Broadly, the Tm is the temperature at the midpoint of the melting transition. For the protein B1, the Tm is 52.3 °C and the “unfolding enthalpy (van 't Hoff)” value stood at 113 kcal/mol. Moreover, the unfolding free energy (25 °C) worked out at 7.1 kcal/mol.
